US7662404B2, “Transdermal delivery system for dried particulate or lyophilized peptides and polypeptides” (TransPharma Medical Ltd., priority 2002, dated 2010)
Like-named read-outs stand apart in the source and are kept apart here.

Columns and labels:
[1] = Plasma sCT after SC injection or printed patch with ViaDerm in pigs (Example 10); format: in vivo; conditions: for bioavailability: compared to SC
Description: Pigs (males, 10-12 kg, Large white) were treated as follows:
Group 1: 1 ml of salmon calcitonin containing 16.7 μg peptide (Miacalcin, Novartis Pharma Ag, Basle, Switzerland) was injected subcutaneously (S.C) to each pig (total 3 pigs).
Group 2: Each pig underwent 2 ViaDerm applications on one site on the back (150 micro-channels per cm^2). Patches of 400 μg sCT/patch of 1.4 cm^2 were placed on the treated area (total 3 pigs).
Group 3: Each pig underwent 2 ViaDerm applications on one site on the back (150 micro-channels per cm^2). Patches of 200 μg sCT/patch of 1.4 cm^2 were placed on the treated area (total 3 pigs).
In order to determine sCT concentrations in pig plasma an ELISA assay was performed (Diagnostic Systems Laboratories, Inc. Webster, Tex., USA).

plasma Ca++ = test: In vivo bioactivity of sCT: plasma Ca++ concentrations in pigs (Example 10)
Description: In vivo bioactivity of sCT was evaluated by measuring plasma Ca^++ concentrations. […] Transdermal administration from the printed patches yielded a ˜20% decrease in Ca^++ concentrations, regardless of sCT dose. Thus, sCT delivered transdermally remained intact and biologically active.

blood glucose = test: Bioactivity of insulin in diabetic rats: blood glucose after printed patches or SC (Example 6); format: in vivo
Description: (§1) ViaDerm apparatus was used. The density of the microelectrode array used in these studies was 100 microelectrodes/cm^2. The device was applied twice on each location, so the density of the micro channels was 200/cm^2. The skin was treated with an applied voltage of 330V, frequency of 100 kHz, two bursts, 700 microsecond burst length, and no current limitation.
Male rats (300-325, Sprague Dawley, Harlan laboratories Ltd., Israel) were deprived of food and received water as libitum 48 hr prior to patch applications. Streptozotocin (55 mg/kg in citric buffer, 0.1 M, pH 4.5) was injected intraperitonally (IP) to the rats 24 hr prior to patch applications in order to induce diabetes. […] The diabetic rats were premedicated with IP injections of 10% ketamin/2% xylazine solution at a ratio of 70:30, 1 ml/kg. Anesthesia was maintained with either isofluorane or halothane gas. The abdominal skin hair was shaved carefully, and was cleaned with isopropyl alcohol. After 30 min, transepidermal water loss measurements (TEWL, Dermalab Cortex Technology, Hadsund, Denmark) were performed to check skin integrity. Skin micro-channeling was performed by the use of the ViaDerm instrument with the conditions described above. TEWL was then measured again to control the operation. The treated skin was covered with Lispro (HUMALOG®) or Regular (HUMULIN®R) 1.5 IU insulin-printed patches. SC injections of 0.4 IU served as a positive control. Blood samples were withdrawn from the tip of the rat's tail at 0, 2, 4, and 6 hr post application, and glucose level was determined.

[2] = Bioavailability of rhGH printed patches with ViaDerm in guinea pigs (Example 5); format: in vivo
Description: as §1, with “ViaDerm micro-channeling” for “ViaDerm”
(§2) Male Guinea pigs (500-800 grams, Dunkin Hartley, Harlan laboratories Ltd., Israel) and Male rats (350-400, Sprague Dawley, Harlan laboratories Ltd., Israel), were premedicated with IP injections of 10% ketamin/2% xylazine solution at a ratio of 70:30, 1 ml/kg. Anesthesia was maintained with either isofluorane or halothane gas. The abdominal skin hair was shaved carefully, and was cleaned with isopropyl alcohol. After 30 min, transepidermal water loss, measurements (TEWL, Dermalab Cortex Technology, Hadsund, Denmark) were performed to check skin integrity. Skin micro channeling was performed by the use of the ViaDerm instrument with the conditions described above. TEWL was then measured again to control the operation. The treated skin was covered with the rhGH patches and blood samples were withdrawn from a preinserted carotid cannula in guinea pig or from the rat's tail at predetermined times post application. The serum was separated by centrifugation and analyzed for rhGH by Elisa kit (DSL-10-1900, Diagnostic Systems Laboratories, Inc. Webster, Tex., USA). The transdermal delivery of rhGH was compared to that of subcutaneous hGH delivery.

[3] = Bioavailability of rhGH printed patches with ViaDerm in normal rats (Example 5); format: in vivo
Description: as §1, with “ViaDerm micro-channeling” for “ViaDerm”
as §2

[4] = rat, in vivo
From the text: • Animals: Rats, males, 250 gr, Sprague Dawley, hypophysectomized at Harlan USA labs. […] This fraction was spread on a hypoallergenic clear medical tape (Kendall Curity®, Emergency Medical Products Inc., USA) in doses specified below, and placed directly onto the skin as a transdermal patch. […]
The transdermal groups (1 and 2) received a treatment including: Shaving, drying, baseline Trans Epidermal Water Loss measurement (TEWL; DERMALAB® Cortex Technology, Hadsund, Denmark), two ViaDerm applications of 200 micropores/cm^2 (placebo for Group 2), second TEWL measurement and patch application. At the end of the study all animals were sacrificed by an IV overdose of sodium-pentobarbital (140 mg/kg). • ViaDerm parameters: burst length—500 μsec, starting amplitude—250 V, number of bursts—5 and applications per site—2 (200 micropores/cm^2). • Blood sampling: Blood samples (0.5 ml/rat) were withdrawn at 6 time points, t=0, 2, 4, 6, 12 and 24 hours, from the tail end of anesthetized rats (20 mg/rat ketamine, intramuscular). • Serum analysis: rhGH in the serum was detected using an Elisa kit (DSL-10-1900; Diagnostic Systems Laboratories, TX, USA) specific for rhGH. […] IGF-1 was detected according to RIA protocol (Endocrine, Vol. 16, no. 1, 1-6, October 2001). […]

[5] = rhGH in serum after printed patches and ViaDerm, hypophysectomized rats (Example 4); format: in vivo
Description: The materials and methods applied in this example were similar to those in EXAMPLE 3 except from the following points: • a) The animals were treated with ELTROXIN™ and hydrocortisone only until 10 days before initiating the treatments. • b) The test article was a printed patch of rhGH in two doses: 0.15 mg/patch and 0.5 mg/patch. The patches were composed of a backing liner (DOW BLF2080™, The Dow Chemical Company, MI, USA) on which drops of GENOTROPIN® were evenly placed. All the patches contained 144 drops over an area 1.4×1.4 cm^2. The printed patch was attached to the skin by a fixing patch, 2 cm×2 cm with 300 μm thick (wet) glue (DURO-TAK™ 3872516; National Starch & Chemical Pty Ltd, NSW, Australia) on the backing liner. • c) The experimental setup included 2 groups of 3 rats each: • Group 1: Treated with ViaDerm+one 0.15 mg printed patch. • Group 2: Treated with ViaDerm+one 0.5 mg printed patch. Results 1. Printed Patches

IGF-1 = IGF-1 in the serum of hypophysectomized rats after rhGH (Example 3); format: in vivo
From the text: GH is produced by the pituitary gland (hypophysis) and acts in several ways and on several targets. A distinctive role attributed to GH is the induction of IGF-1 production by liver cells (hepatocytes). As GH is the main trigger for the production of IGF-1, the activity of GH can be detected by measuring IGF-1 levels in the blood. GH levels in the blood can be directly analyzed as well.
Results 1. rhGH in the Serum

[6] = diabetic rats, 1.5 IU insulin-printed patch on ViaDerm treated skin
[7] = diabetic rats, 1.5 IU insulin-printed patch on ViaDerm treated skin, from about 400 mg/dl
[8] = hyperglycemic rats, transdermal
[9] = Transdermal printed patch, dose 50 (mg)
[10] = Transdermal printed patch, dose 150 (mg)
[11] = Transdermal printed patch, dose 300 (mg)
[12] = Transdermal printed patch, dose 400 (mg)
[13] = Transdermal printed patch, dose 75 μg
[14] = Transdermal printed patch, dose 150 μg
[15] = Transdermal printed patch, dose 300 μg
[16] = Transdermal printed patch, dose 450 μg
[17] = Group 1: ViaDerm + 0.15 mg printed patch
[18] = Group 2: ViaDerm + 0.5 mg printed patch
[19] = Group 1: ViaDerm + ~0.8 mg rhGH powder patch
[20] = Group 3: SC injection 150 μg/rat

Compound: CC(C)C[C@H](NC(=O)[C@H](CCCCN)NC(=O)CNC(=O)[C@H](CC(C)C)NC(=O)[C@@H](NC(=O)[C@@H]1CSSC[C@H](N)C(=O)N[C@@H](CO)C(=O)N[C@@H](CC(N)=O)C(=O)N[C@@H](CC(C)C)C(=O)N[C@@H](CO)C(=O)N[C@@H]([C@@H](C)O)C(=O)N1)C(C)C)C(=O)N[C@@H](CO)C(=O)N[C@@H](CCC(N)=O)C(=O)N[C@@H](CCC(=O)O)C(=O)N[C@@H](CC(C)C)C(=O)N[C@@H](Cc1c[nH]cn1)C(=O)N[C@@H](CCCCN)C(=O)N[C@@H](CC(C)C)C(=O)N[C@@H](CCC(N)=O)C(=O)N[C@H](C(=O)N[C@@H](Cc1ccc(O)cc1)C(=O)N1CCC[C@H]1C(=O)N[C@@H](CCCNC(=N)N)C(=O)N[C@H](C(=O)N[C@@H](CC(N)=O)C(=O)N[C@H](C(=O)NCC(=O)N[C@@H](CO)C(=O)NCC(=O)N[C@H](C(=O)N1CCC[C@H]1C(N)=O)[C@@H](C)O)[C@@H](C)O)[C@@H](C)O)[C@@H](C)O [sCT]
- Amount delivered ([1]; Printed patch 400 μg): 31.92 µg
- bioavailability ([1]; Printed patch 400 μg): 7.98%
- AUC ([1]; S.C. 16.7 μg, neck): 206.377 ± 63.647 pg·min/mL
- Cmax ([1]; male, Large white, pig, plasma, other: transdermal printed patch on ViaDerm-treated skin, 200 ug, patch 200 μg, ViaDerm, back): 2.33 ± 0.673 ng/mL
- bioavailability ([1]; male, Large white, pig, plasma, other: transdermal printed patch on ViaDerm-treated skin, 200 ug, patch 200 μg, read-out: bioavailability): 10%
- Cmax ([1]; male, Large white, pig, plasma, other: transdermal printed patch on ViaDerm-treated skin, 400 ug, Printed patch 400 μg, ViaDerm, back): 2.82 ± 1.74 ng/mL
- bioavailability ([1]; male, Large white, pig, plasma, other: transdermal printed patch on ViaDerm-treated skin, 400 ug, Printed patch 400 μg, read-out: bioavailability): 8%
- Cmax ([1]; male, Large white, pig, plasma, sc, 16.7 ug, S.C. 16.7 μg, neck): 2.21 ± 1.12 ng/mL
- Amount delivered ([1]; patch 200 μg): 20.12 µg
- bioavailability ([1]; patch 200 μg): 10.06%
- decrease of plasma Ca++ concentrations from time 0 (plasma Ca++; SC administration 16.7 μg): ~25%
- decrease in plasma Ca++ concentrations (plasma Ca++; transdermal from printed patches, regardless of sCT dose (200 or 400 μg)): ~20%

Compound: HUMALOG®: human recombinant insulin Lispro, 100 IU/ml (Lilly), used in 1.5 IU printed patches
- blood glucose level after 6 hr (blood glucose; [6]): about 30 mg/dl
- blood glucose level three hours following application (blood glucose; [7]): about 70 mg/dl

Compound: HUMULIN®: human recombinant insulin, regular, 100 IU/ml (Lilly), used in 1.5 IU printed patches
- blood glucose level after 6 hr (blood glucose; [6]): about 30 mg/dl
- blood glucose level three hours following application (blood glucose; [7]): about 70 mg/dl

Compound: insulin: insulin given as SC injection of 0.4 IU, positive control; product not specified
- blood glucose level after 6 hr (blood glucose; diabetic rats, SC injection 0.4 IU): about 200 mg/dl
- blood glucose level three hours following administration (blood glucose; diabetic rats, SC injection 0.4 IU, from about 400 mg/dl): about 70 mg/dl
- period of normal glucose level (blood glucose; [8]): 4 to 6 h
- time to normal glucose level (100 mg/dl to 200 mg/dl glucose) (blood glucose; [8]): 1 to 3 h

Compound: rhGH: recombinant human growth hormone, 22 kDa polypeptide; GENOTROPIN (Pharmacia & Upjohn) with mannitol
- Bioavailability (% of SC) ([2]; SC, dose 50 (mg printed; reference)): 100 % of SC
- AUC ([2]; SC, dose 50 (mg)): 176 ng·h/mL
- AUC [2, 9]: 57 ng·h/mL
- Bioavailability (% of SC) [2, 9]: 32.4 % of SC
- AUC [2, 10]: 175 ng·h/mL
- Bioavailability (% of SC) [2, 10]: 33.1 % of SC
- AUC [2, 11]: 362 ng·h/mL
- Bioavailability (% of SC) [2, 11]: 34.3 % of SC
- AUC [2, 12]: 404 ng·h/mL
- Bioavailability (% of SC) [2, 12]: 28.7 % of SC
- AUC ([3]; SC, dose 150 μg): 489 ng·h/mL
- Bioavailability (% of SC) ([3]; SC, dose 150 μg (reference)): 100 % of SC
- AUC [3, 13]: 184 ng·h/mL
- Bioavailability (% of SC) [3, 13]: 75.3 % of SC
- AUC [3, 14]: 376 ng·h/mL
- Bioavailability (% of SC) [3, 14]: 76.9 % of SC
- AUC [3, 15]: 727 ng·h/mL
- Bioavailability (% of SC) [3, 15]: 74.3 % of SC
- AUC [3, 16]: 884 ng·h/mL
- Bioavailability (% of SC) [3, 16]: 60.3 % of SC
- bioavailability compared to the SC group [4]: 33.8%
- AUC normalized for 0.1 mg rhGH ([4]; sc): 1128 µg·h/mL
- AUC absolute value [5, 17]: 1594 ng·h/mL
- time of peak rhGH serum level [5, 17]: 4 h
- AUC absolute value [5, 18]: 6563 ng·h/mL
- time of peak rhGH serum level [5, 18]: 6 h
- IGF-1 in the serum (IGF-1; [19]): elevation of IGF-1
- time of maximal average IGF-1 concentration (IGF-1; [19]): 12 h
- IGF-1 in the serum (IGF-1; Group 2: rhGH patch on intact skin): low level of IGF-1
- IGF-1 in the serum (IGF-1; [20]): anticipated elevation of IGF-1
- time of peak IGF-1 concentration (IGF-1; [20]): 12 h
